± gives the standard deviation of the averaged measurements.
Test system: Saccharomyces cerevisiae
Test: protein stability index of tFT-peptide fusion (C-terminal peptide) (PSI (0-1 scale)); higher = more stable (slower turnover)
Conditions: genetic background: wild type; temperature: 30 C
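Note: PSI is a weighted mean of sequencing reads over stability bins, variants kept only with over 10 reads, mCherry proximal and sfGFP distal, peptide attached via GGGS linker.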

Sequence | protein stability index
ATPTSPSRPFLL | 0.707 ± 0.086
TSIREVPAPCSH | 0.756 ± 0.032
VSAYWFLLFGSV | 0.662 ± 0.13
GVCRVAVGGGAT | 0.713 ± 0.033
RPSLPPRSPPPS | 0.767 ± 0.069
GGGWRGRRVADF | 0.701 ± 0.043
LGLWSSVFGSSL | 0.743 ± 0.018
GGSSEKVLCIWR | 0.7246 ± 0.0014
KQWCFLKWGVNV | 0.558 ± 0.058
SPFSPTAPPPPP | 0.718 ± 0.017
YSLVKITHGRKK | 0.684 ± 0.015
KKGRKKEGKREK | 0.621 ± 0.06
LGGVLSRQPYSE | 0.643 ± 0.014
WSRLAGMGRGGA | 0.764 ± 0.013
GSPPSPPLPPPP | 0.674 ± 0.023
PPFFLLLPPTIF | 0.67 ± 0.063
GIQAGGGGGKGG | 0.676 ± 0.022
EQTIGDRVPGKG | 0.658 ± 0.051
DGLGSSGCCLCW | 0.693 ± 0.038
GEFISRSSRIEI | 0.64 ± 0.042
VGWRWGRGRAVW | 0.728 ± 0.067
DPLVDLCGPLSL | 0.717 ± 0.077
PCPFSSPPPLTH | 0.763 ± 0.053
HTWALERVCSLD | 0.687 ± 0.066
SSTFPRPSLRPV | 0.64 ± 0.091
VESRVVGGGGDW | 0.683 ± 0.047

Sequence | protein stability index
GPRVFKPRTTHG | 0.663 ± 0.025
AYPWWLILSDAI | 0.759 ± 0.016
GENPEPRHGRGN | 0.698 ± 0.022
RVPRYEKIVSSI | 0.658 ± 0.013
VPLIFSTFVSIS | 0.54 ± 0.009
GWGLCGRAAGVE | 0.692 ± 0.011
RFCVTASDLREF | 0.751 ± 0.057
SLDGTVHARRAH | 0.695 ± 0.07
RPPPPPPPSPHL | 0.692 ± 0.041
PTNQHNLEQRPE | 0.667 ± 0.05
PPAPFAICRTRS | 0.654 ± 0.018
VEDGGSREAGEA | 0.627 ± 0.0073
PRPPPPLPPFPP | 0.6602 ± 0.0011
RGRMGLGSPGGG | 0.639 ± 0.06
GLCGVVFGGRGE | 0.657 ± 0.064
VVGAVSASLAGV | 0.662 ± 0.056
GCVPGVGRDVVV | 0.719 ± 0.019
PVPLTPRCPSVT | 0.6 ± 0.019
LLAPPLPPPRHG | 0.674 ± 0.018
LYRRLLCYPKTR | 0.675 ± 0.0043
TSIDIEWYNSLM | 0.589 ± 0.026
RPLPPLPRPPSP | 0.557 ± 0.02
GESRPPLASPHP | 0.708 ± 0.0087
ATALETWGGAQG | 0.691 ± 0.015
FMLGYIRPKWGG | 0.714 ± 0.12
PLRYPQLTLPPP | 0.6381 ± 0.0037

Sequence | protein stability index
DTCWHELILAFS | 0.592 ± 0.087
KGQNLAVTRERE | 0.7 ± 0.024
HGVSERPSISEY | 0.6797 ± 0.0066
LLGVGYGSGGWR | 0.633 ± 0.089
LFLPDPHSLTFH | 0.744 ± 0.044
KESKIKDKNSII | 0.734 ± 0.012
PSPPVRPPLPPP | 0.652 ± 0.15
GCFDLNPDLFQG | 0.688 ± 0.022
HGGTGDPAGIES | 0.694 ± 0.013
SFLISPFSLFSS | 0.771 ± 0.051
CPFTDPRRQQSV | 0.646 ± 0.028
TKKKTINRTQKQ | 0.713 ± 0.043
GVPRMLVGAFRG | 0.684 ± 0.022
PPPLPLPSPPPP | 0.671 ± 0.089
SLQRLFGRGGMV | 0.643 ± 0.1
GLPRCMDWSIRR | 0.6764 ± 0.00099
GAAGASCDCTGG | 0.695 ± 0.07
KDEGIRENKPNH | 0.668 ± 0.078
SGCWREVEVGFG | 0.737 ± 0.059
GGGGGGGGGAGG | 0.674 ± 0.023
VCTGYIAGGPVC | 0.659 ± 0.05
VCAAWKCRLDAG | 0.624 ± 0.0043
KQKKTKKTKKQN | 0.647 ± 0.044
VQIALTLNSPSL | 0.605 ± 0.058
RFALSCITPCIL | 0.661 ± 0.069
KKKHKNNIQKKK | 0.6129 ± 0.0017

Sequence | protein stability index
RRPHLLCSPARL | 0.883 ± 0.012
GAWASLPGLISP | 0.729 ± 0.058
GASGGGQSSFGE | 0.669 ± 0.013
VVWCSWGFLFSA | 0.625 ± 0.042
IKREGRDNEEKK | 0.703 ± 0.039
KIRIWWIEEKTI | 0.6067 ± 0.0023
CALWHLLPVNLH | 0.645 ± 0.059
PRSPSLPPLFSP | 0.718 ± 0.072
YLVKSCCNKDNV | 0.659 ± 0.029
EGHTRLPSPSPS | 0.677 ± 0.009
RPDRPSGLLPRP | 0.701 ± 0.039
RDILFIGINIYK | 0.585 ± 0.049
KKKSNNNNQKPH | 0.737 ± 0.016
RWGGWGYRGGVP | 0.752 ± 0.062
ALPETKVSRRQS | 0.677 ± 0.11
VWCVWGVGGLWA | 0.648 ± 0.025
PPAPPPPPPSPP | 0.659 ± 0.029
GGGRWSAGVVEG | 0.829 ± 0.1
HRVVGVTLSVPS | 0.71 ± 0.071
GIVFVFGGGLAL | 0.702 ± 0.078
PSGPKAPPHAGR | 0.6757 ± 0.0058
PPCTVKAQRAYD | 0.694 ± 0.035
VRCAAIKLIGRI | 0.675 ± 0.051
GLSSLVLRFFLP | 0.663 ± 0.025
GTRRIDSKDICP | 0.742 ± 0.04
RLFTLVPIGPFM | 0.704 ± 0.055

Sequence | protein stability index
VDLARWPVPEFW | 0.834 ± 0.022
IVGRGGRGGWGV | 0.685 ± 0.04
AMAELVCVSLRC | 0.536 ± 0.016
GVQSSAPVKVRI | 0.6551 ± 0.0046
PPLHSSPPAVPP | 0.699 ± 0.038
GCLFSVLQSPSV | 0.721 ± 0.02
YRCVQKEIVQRY | 0.693 ± 0.056
AQPRGLLVCPFL | 0.664 ± 0.044
DITQSRIHMTNI | 0.661 ± 0.055
RKKHSHKKAKKK | 0.702 ± 0.014
GICDAVLFTMLV | 0.682 ± 0.068
TLEGRQKEMGIA | 0.691 ± 0.037
RPSPMPTATPAT | 0.701 ± 0.029
GKRGKKVKKKSK | 0.621 ± 0.016
EAVVVLVSRFGL | 0.695 ± 0.044
GRPKNSYNQNSG | 0.747 ± 0.013
PPPAPARPPTPP | 0.686 ± 0.11
FLRLFLQQVEFL | 0.7157 ± 0.0026
PLSSILSPSSPA | 0.729 ± 0.052
WIKKGKNRLRKT | 0.586 ± 0.05
PRPLASRITSPA | 0.692 ± 0.036
RRSVQLQSALFI | 0.736 ± 0.069
RVPPAIPSRRAC | 0.682 ± 0.06
PVPADGPSPPQP | 0.721 ± 0.035
ARQHGLELTNPR | 0.678 ± 0.015
SSPPPPALPEYQ | 0.699 ± 0.0082

Sequence | protein stability index
GGGGSVGGGALR | 0.651 ± 0.0088
EGRGKGKKKKTH | 0.7 ± 0.036
LGAAMRSAVEAA | 0.64 ± 0.013
NKYRKNMKSSVP | 0.671 ± 0.019
LALHPPPRVPPT | 0.701 ± 0.036
RPAASTKWAVQP | 0.6923 ± 0.0021
VRRVHAMVLLGG | 0.65 ± 0.014
VKYSIEVKRKKK | 0.7181 ± 0.0039
RFEFFHLVSWLL | 0.644 ± 0.052
FQAYPPFSLVPA | 0.5533 ± 0.0029
YLGWLYQKCGTV | 0.639 ± 0.056
ALPIVPDVCFSP | 0.679 ± 0.051
PPPLPPRLPHLA | 0.664 ± 0.036
GSFFFFLAPSYF | 0.636 ± 0.014
LPSPTTNLFKPN | 0.711 ± 0.0091
AICRVGGFGRKD | 0.717 ± 0.01
MRSLLDPLSNSC | 0.7804 ± 0.0065
FSISCFRVSSDF | 0.761 ± 0.032
EGDGVGCWWELW | 0.683 ± 0.033
FPSLLFSSPSAF | 0.7 ± 0.038
LTARPPTLSSPL | 0.6729 ± 0.0043
VFMWRIRRRLVR | 0.598 ± 0.02
KTKKPIILDTSN | 0.6406 ± 0.0047
IHCFSVDLLVAR | 0.542 ± 0.018
RSVPLLFPSLFL | 0.72 ± 0.027
RKKVRKTKKIKK | 0.628 ± 0.089

Sequence | protein stability index
FTNDMSSGRVAI | 0.692 ± 0.016
IGGVSHEMKAKR | 0.619 ± 0.013
KIRRECIGSSVY | 0.687 ± 0.019
HHIAYTALSVWS | 0.663 ± 0.011
FSCLRSINRDVG | 0.702 ± 0.044
LLTSFFTLFCNT | 0.657 ± 0.05
PTLSPSPLAPLS | 0.6635 ± 0.0018
RNCELQSLSSTL | 0.732 ± 0.036
KDLEIKKEKRKD | 0.666 ± 0.015
LRGPRTSTPLST | 0.714 ± 0.036
PSLPPVPPPPRP | 0.71 ± 0.04
PPPPPSFSFPPT | 0.706 ± 0.049
AQCAFIKAGVTW | 0.686 ± 0.051
FFSSHPCYFSTF | 0.69 ± 0.072
SPHPLLSSPPPA | 0.686 ± 0.075
GLPTPSNVPPFG | 0.703 ± 0.01
YTLMEERTKKDN | 0.742 ± 0.068
IHLTRGGNGHMD | 0.6 ± 0.04
PLPPVVSFALSR | 0.661 ± 0.061
GNKAPHTRTIGG | 0.706 ± 0.028
RKIIIINLQKIK | 0.586 ± 0.024
LDHFGASYCPRG | 0.706 ± 0.027
LRSPGSHIVRLT | 0.569 ± 0.035
FCGGYHATVKMR | 0.68 ± 0.015
VGVLSYYTCYEL | 0.689 ± 0.18
GGGGGRAYSWWV | 0.699 ± 0.014

Sequence | protein stability index
VVRLGLVSGCGG | 0.581 ± 0.013
PLLGPFTPSSLL | 0.737 ± 0.0088
DSPTGLKFTQSL | 0.634 ± 0.1
EDCICPLNWFTA | 0.711 ± 0.013
TALSPPVPTLPP | 0.7 ± 0.013
PPPRTYLPRPRL | 0.764 ± 0.0085
PSSPPSLPSPLP | 0.691 ± 0.065
IHVKKNQACSLF | 0.646 ± 0.024
TECGVRRGLVGR | 0.651 ± 0.025
GCLSRLCKGKVM | 0.599 ± 0.033
PLLHSARSSPFR | 0.699 ± 0.049
LCWQALSLGVMC | 0.526 ± 0.023
VNQSCPRPTPFV | 0.67 ± 0.051
KKNQNSKNRKEN | 0.627 ± 0.036
LTYFCTLPATLK | 0.663 ± 0.022
ARSRPSILSGPE | 0.689 ± 0.062
APLLAPPPPSRT | 0.642 ± 0.009
VCRLLASCFWRL | 0.655 ± 0.035
YLCVLASLSSTF | 0.591 ± 0.022
SPFPPLPSRPPP | 0.676 ± 0.0097

— the supplement of paper PMC10724198
